Experimental data from article PMC9280364, “MdNAC4 Interacts With MdAPRR2 to Regulate Nitrogen Deficiency-Induced Leaf Senescence in Apple (Malus domestica)”.

What was measured:
MdNAC4-GST [1] = molecular target: T1, MdNAC4-GST (Malus domestica, UniProt B6DXL4 1-350); experiment: EMSA; unlabeled probe competes; EMSA binding buffer (composition not given), 24 °C, 30 min in the dark; details: protein: recombinant; tags: GST (pGEX-4T-1 type primers GST-MdNAC4-F/R); chain copies: 2; label: biotin; blunt
T1 sequence: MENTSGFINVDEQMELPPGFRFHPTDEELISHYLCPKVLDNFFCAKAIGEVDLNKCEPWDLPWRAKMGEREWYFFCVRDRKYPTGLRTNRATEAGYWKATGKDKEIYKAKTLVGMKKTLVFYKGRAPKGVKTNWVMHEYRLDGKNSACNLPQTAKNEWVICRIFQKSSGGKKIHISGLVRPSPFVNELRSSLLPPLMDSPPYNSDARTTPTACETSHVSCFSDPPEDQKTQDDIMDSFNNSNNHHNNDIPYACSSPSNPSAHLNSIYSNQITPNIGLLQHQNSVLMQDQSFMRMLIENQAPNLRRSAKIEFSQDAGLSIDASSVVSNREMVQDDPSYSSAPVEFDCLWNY

MdNAC4-GST [2] = molecular target: T1, MdNAC4-GST; experiment: EMSA; EMSA binding buffer (composition not given), 24 °C, 30 min in the dark; details: protein: recombinant; tags: GST (pGEX-4T-1 type primers GST-MdNAC4-F/R); chain copies: 2; blunt

B1: MdNYC1 promoter probe (ABRE) (dsDNA)
DNA 1: ATATAGGCACGTGAAGGGAGGACAGAGATG
DNA 2: CATCTCTGTCCTCCCTTCACGTGCCTATAT
B1: binds (MdNAC4-GST [1]).

B2: MdPAO promoter probe (ABRE) (dsDNA)
DNA 1: AGTTATCCATACGTGTAAAACCAAT
DNA 2: ATTGGTTTTACACGTATGGATAACT
B2: binds (MdNAC4-GST [1]).

B3: MdPAO Mut probe (dsDNA)
DNA 1: AGTTATCCATCCGTCTAAAACCAAT
DNA 2: ATTGGTTTTAGACGGATGGATAACT
B3: no binding (MdNAC4-GST [2]).
